Laboratory results from article PMC5998080, “Structural and functional analysis of mRNA export regulation by the nuclear pore complex” (Nature Communications, 2018).

T1: H. sapiens DDX19^∆N53 (residues 54–479) (human, UniProt Q9UMR2 54-479)
T1 construct: human DEAD-box helicase DDX19 without the flexible N-terminal extension, residues 54-479; source: E. coli BL21-CodonPlus(DE3)-RIL, purified (Ni-NTA, HiTrap Q, Superdex 200); not shown: His6, N-terminal, cleaved
T1 sequence (looked up): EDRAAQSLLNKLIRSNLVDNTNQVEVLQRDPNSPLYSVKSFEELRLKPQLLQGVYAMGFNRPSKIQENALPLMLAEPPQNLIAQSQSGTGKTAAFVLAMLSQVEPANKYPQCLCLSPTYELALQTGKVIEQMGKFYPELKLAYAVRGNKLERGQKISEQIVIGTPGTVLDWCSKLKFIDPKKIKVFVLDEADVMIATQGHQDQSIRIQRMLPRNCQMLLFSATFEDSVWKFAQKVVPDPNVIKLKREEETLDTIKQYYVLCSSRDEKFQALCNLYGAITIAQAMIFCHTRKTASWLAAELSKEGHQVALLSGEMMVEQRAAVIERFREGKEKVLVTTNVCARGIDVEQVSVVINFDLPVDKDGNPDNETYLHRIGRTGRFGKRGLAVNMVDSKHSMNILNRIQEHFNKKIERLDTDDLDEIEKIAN

T2: H. sapiens DDX19 (human, UniProt Q9UMR2 1-479)
T2 construct: human DEAD-box helicase DDX19 (the printed residue numbers run to 479); also called hsDDX19; wild-type DDX19; source: E. coli BL21-CodonPlus(DE3)-RIL, purified (Ni-NTA, HiTrap Q, Superdex 200); not shown: His6, N-terminal, cleaved
T2 sequence (looked up): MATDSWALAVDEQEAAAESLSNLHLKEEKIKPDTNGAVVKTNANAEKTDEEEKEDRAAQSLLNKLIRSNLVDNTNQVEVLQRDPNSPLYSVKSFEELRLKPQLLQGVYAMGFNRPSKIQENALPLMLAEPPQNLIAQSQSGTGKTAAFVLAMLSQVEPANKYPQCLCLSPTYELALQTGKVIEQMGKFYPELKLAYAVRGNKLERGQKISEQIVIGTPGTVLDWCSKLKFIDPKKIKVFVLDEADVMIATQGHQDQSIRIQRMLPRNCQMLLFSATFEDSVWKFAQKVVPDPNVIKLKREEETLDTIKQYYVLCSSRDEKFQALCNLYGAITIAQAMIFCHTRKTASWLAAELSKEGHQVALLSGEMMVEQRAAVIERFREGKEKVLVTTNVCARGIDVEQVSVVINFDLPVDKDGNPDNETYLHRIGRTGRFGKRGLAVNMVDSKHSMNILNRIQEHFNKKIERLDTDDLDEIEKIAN

T3: GST-Nup155^CTD (human, UniProt O75694 870-1391)
T3 construct: human Nup155, C-terminal domain, residues 870-1391; Limits are those printed for Nup155^CTD; source: E. coli BL21-CodonPlus(DE3)-RIL, purified (Glutathione Sepharose, HiTrap Q, Superdex 200); not shown: GST, N-terminal, kept
T3 sequence (looked up): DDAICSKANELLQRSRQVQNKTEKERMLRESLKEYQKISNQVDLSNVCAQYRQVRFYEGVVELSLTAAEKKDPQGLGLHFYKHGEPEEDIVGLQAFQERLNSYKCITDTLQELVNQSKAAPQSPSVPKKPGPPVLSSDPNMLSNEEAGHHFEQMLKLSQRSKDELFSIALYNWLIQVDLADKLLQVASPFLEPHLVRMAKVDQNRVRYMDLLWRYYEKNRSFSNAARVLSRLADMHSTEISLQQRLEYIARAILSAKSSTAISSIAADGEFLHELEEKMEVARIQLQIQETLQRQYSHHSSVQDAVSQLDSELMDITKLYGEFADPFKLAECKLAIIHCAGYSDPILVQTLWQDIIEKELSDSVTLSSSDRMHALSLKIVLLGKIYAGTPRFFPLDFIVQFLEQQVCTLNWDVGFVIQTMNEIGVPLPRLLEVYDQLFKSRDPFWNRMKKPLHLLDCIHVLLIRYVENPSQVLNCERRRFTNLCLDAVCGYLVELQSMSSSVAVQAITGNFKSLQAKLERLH

T4: Nup155 C-terminal domain (Nup155^CTD, residues 870–1391) (human, UniProt O75694 870-1391)
T4 construct: human Nup155, C-terminal domain, residues 870-1391; also called His6-Nup155^CTD; source: E. coli BL21-CodonPlus(DE3)-RIL, purified (Ni-NTA, HiTrap Q, Superdex 200); not shown: His6, N-terminal, cleaved
T4 sequence (looked up): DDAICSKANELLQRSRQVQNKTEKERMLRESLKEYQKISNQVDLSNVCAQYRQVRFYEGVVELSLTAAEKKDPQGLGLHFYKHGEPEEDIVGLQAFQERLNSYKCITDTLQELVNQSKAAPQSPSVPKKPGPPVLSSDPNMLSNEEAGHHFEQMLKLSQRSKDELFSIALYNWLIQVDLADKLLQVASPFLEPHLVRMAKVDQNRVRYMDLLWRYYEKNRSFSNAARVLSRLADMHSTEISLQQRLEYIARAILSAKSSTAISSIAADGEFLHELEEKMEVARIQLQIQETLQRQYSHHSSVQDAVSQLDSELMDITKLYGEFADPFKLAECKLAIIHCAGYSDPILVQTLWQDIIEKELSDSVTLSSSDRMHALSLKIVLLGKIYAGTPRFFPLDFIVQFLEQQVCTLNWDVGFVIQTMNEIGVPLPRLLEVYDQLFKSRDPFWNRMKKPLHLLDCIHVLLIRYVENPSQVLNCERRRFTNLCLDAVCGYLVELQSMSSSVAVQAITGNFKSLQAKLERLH


Columns and labels:
Conditions in all cases: both partners purified
[1] = molecular target: T1, H. sapiens DDX19^∆N53 (residues 54–479); assay: crystal structure; H. sapiens Gle1^CTD•Nup42^GBM•DDX19^∆N53, reconstituted from equimolar purified Gle1^CTD•Nup42^GBM and DDX19^∆N53; with ADP 3.6 Å or AMP-PNP•Mg^2+ 3.4 Å
H. sapiens DDX19 = molecular target: T2, H. sapiens DDX19; assay: SEC; human DDX19 with Gle1^CTD•Nup42^GBM, without and with 0.5 mM IP6 (IP6 partially reduced complex formation); 20 mM TRIS (pH 8.0), 100 mM NaCl, 5 mM DTT
GST-Nup155^CTD = molecular target: T3, GST-Nup155^CTD; assay: pull-down; GST-Nup155^CTD (20 μM) preincubated with a twofold molar ratio of Nup98^ΔFG or SUMO-Gle1^N, then with 0-8-fold molar ratios of the other protein; Glutathione Sepharose beads; 20 mM TRIS (pH 8.0), 100 mM NaCl, 5 mM DTT
[2] = molecular target: T4, Nup155 C-terminal domain (Nup155^CTD, …); assay: SEC; Superdex 200 10/300 GL; 20 mM TRIS (pH 8.0), 100 mM NaCl, 5 mM DTT; proteins mixed and incubated 30 min on ice, twofold molar excess of the smaller component; fractions on Coomassie-stained SDS-PAGE

| Binder | binding result [1] | binding result (H. sapiens DDX19) | binding result (GST-Nup155^CTD) | binding result [2] |
| --- | --- | --- | --- | --- |
| H. sapiens Gle1^CTD•Nup42^GBM complex (complex, human, human Gle1 (splice variant Gle1B), C-terminal domain, residues 382-698; Chains as m16 and m17; also called hsGle1^CTD•His6-hsNup42^GBM; source: E. coli BL21-CodonPlus(DE3)-RIL, co-expressed, purified (Ni-NTA, heparin, Superdex 75); not shown: His6, N-terminal, cleaved) chain 1: VQDITMQWYQQLQDASMQCVLTFEGLTNSKDSQAKKIKMDLQKAATIPVSQISTIAGSKLKEIFDKIHSLLSGKPVQSGGRSVSVTLNPQGLDFVQYKLAEKFVKQGEEEVASHHEAAFPIAVVASGIWELHPRVGDLILAHLHKKCPYSVPFYPTFKEGMALEDYQRMLGYQVKDSKVEQQDNFLKRMSGMIRLYAAIIQLRWPYGNRQEIHPHGLNHGWRWLAQILNMEPLSDVTATLLFDFLEVCGNALMKQYQVQFWKMLILIKEDYFPRIEAITSSGQMGSFIRLKQFLEKCLQHKDIPVPKGFLTSSFWRS chain 2: IIATDNVLFTPRDKLTVEELEQFQSKKFTLGKIPLKPPPLELLNV | binds | binds |  |  |
| H. sapiens Gle1 C-terminal domain (Gle1^CTD, residues 382–698) (domain or fragment, human, UniProt Q53GS7 382-698, looked up, human Gle1 (splice variant Gle1B), C-terminal domain, residues 382-698; also called hsGle1^CTD; source: E. coli BL21-CodonPlus(DE3)-RIL, co-expressed with His6-hsNup42^GBM, purified (Ni-NTA, heparin, Superdex 75)) VQDITMQWYQQLQDASMQCVLTFEGLTNSKDSQAKKIKMDLQKAATIPVSQISTIAGSKLKEIFDKIHSLLSGKPVQSGGRSVSVTLNPQGLDFVQYKLAEKFVKQGEEEVASHHEAAFPIAVVASGIWELHPRVGDLILAHLHKKCPYSVPFYPTFKEGMALEDYQRMLGYQVKDSKVEQQDNFLKRMSGMIRLYAAIIQLRWPYGNRQEIHPHGLNHGWRWLAQILNMEPLSDVTATLLFDFLEVCGNALMKQYQVQFWKMLILIKEDYFPRIEAITSSGQMGSFIRLKQFLEKCLQHKDIPVPKGFLTSSFWRS | binds | binds |  |  |
| Nup98 lacking the FG repeat region (Nup98^∆FG, residues 498–880) (domain or fragment, human, UniProt P52948 498-880, looked up, human Nup98, construct lacking the FG repeat region, residues 498-880; also called Nup98^ΔFG; His6-SUMO-Nup98^∆FG; source: E. coli BL21-CodonPlus(DE3)-RIL, purified (Ni-NTA, HiTrap Q, Superdex 200); not shown: His6, N-terminal, cleaved; SUMO, N-terminal, cleaved) QAVLQQHINSLTYSPFGDSPLFRNPMSDPKKKEERLKPTNPAAQKALTTPTHYKLTPRPATRVRPKALQTTGTAKSHLFDGLDDDEPSLANGAFMPKKSIKKLVLKNLNNSNLFSPVNRDSENLASPSEYPENGERFSFLSKPVDENHQQDGDEDSLVSHFYTNPIAKPIPQTPESAGNKHSNSNSVDDTIVALNMRAALRNGLEGSSEETSFHDESLQDDREEIENNSYHMHPAGIILTKVGYYTIPSMDDLAKITNEKGECIVSDFTIGRKGYGSIYFEGDVNLTNLNLDDIVHIRRKEVVVYLDDNQKPPVGEGLNRKAEVTLDGVWPTDKTSRCLIKSPDRLADINYEGRLEAVSRKQGAQFKEYRPETGSWVFKVSHF |  |  | binds | binds |
